A short description of this series: yeast display, Sf9 membrane polyspecificity reagent, FACS + sequencing; frameworks hold sequencing errors. Put shortly:
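Polyreactivity labels are assigned by the sorting gate from which each nanobody was recovered. The gates were low and high (top ~1%), set on anti-HA fluorescence for expression and streptavidin fluorescence for reagent binding. Before sorting, galactose-induced (36–48 hours) yeast display cells were stained for 1 hour at 4 °C with 10% biotinylated, detergent-solubilized Sf9 membrane reagent.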
Regarding “QVQLVESGGGLVQAGGSLRLSCAASGSTFTGYALGWYRQAPGKEREFVATITKRGGRTYYADSVKGRFTISRDNAKNTVYLQMHSLKPEDTAVYYCARDQGKLVVPYDYWGQGTQVTVSS”, the “polyreactivity (PSR sort gate)” value is “high polyreactivity”.
To “QVQLVESGGGLVQAGGSLRLSCAASGSTFTGYAMGWYRQAPGKERELVAAISRSGGSTSYADSVKGRFTISRDNAKNTVYLQMNSLKPEDTAVDYCAAQVQGTTRAKQRGGIGELDYWGQGTQVTVSS” belongs “low polyreactivity”.
Then “QVQLVESGGGLVQAGGSLRLSCAASGSTFTGYTMGWYRQAPGKERELVASIRTYYADSVKGRFTISRDNAKNTVYLQMNSLKPEDTAVYYCAAKPGRYADYDYNSWGQGTQVTVSS”, with “low polyreactivity”; and “QVQLVESGGGLVQAGGSLRLSCAASGSTFTINAKGWYRQATGKETELVAAITDSAGNTYYADSVKGRFTISRDNAKNTVYLQMNSLKPEDTAVYYCAAAWPSTGLLYVLGYSGYGYWGQGTQVTVSS”, with “low polyreactivity”; and “QVQLVESGGGLVQAGGSLRLSCAASGSTFTINAMGWYRQAPGKERELVAAISRSGGSTFYADSVKGRFTISRDNAKNTVYLQMNSLKPEDTAVYYCAAGYRGTAYRYGYCGQGTQVTVSS”, with “high polyreactivity”.
As for “QVQLVESGGGLVQAGGSLRLSCAASGSTFTLYAKGWYRQAPGKERELVAAINGAGSTYYADSVKGRFTISRDNAKNTVYLQMNSLKPEDTAVYYCAKDLQYGWYDYWGQGTQVTVSS”, the “polyreactivity (PSR sort gate)” value is “low polyreactivity”.
As for “QVQLVESGGGLVQAGGSLRLSCAASGSTFTLYVMGWYRQAPGKERELVAAISSNGGRTYYADSVKGRFTISRDNAKNTVYLQMNSLKPEDTAVYYCAAGKIGRYHYDYWGQGTQVTVSS”, the “polyreactivity (PSR sort gate)” value was “high polyreactivity”.
As for “QVQLVESGGGLVQAGGSLRLSCAASGSTFTLYVMGWYRQATGKERELVAAISSNGGRTYYADSVKGRFTISRDNAKNTVYLQMTSLKPEDTAVYYCAKLVSLAGRIYGYWGQGTQVTVSS”, the “polyreactivity (PSR sort gate)” value is recorded as “high polyreactivity”.
To “QVQLVESGGGLVQAGGSLRLSCAASGSTFTNYAMGWYRQAPRKERELVAAITSVGSTYYADSVKGRFTISRDNAKNTVYLQMNSLKQEDTAVYYCNVVYRDQYNYWGQGTQVTVSS” belongs “low polyreactivity”.
Consider “QVQLVESGGGLVQAGGSLRLSCAASGSTFTPNAMGWYRQVPGKERELVASITIGGSTYADSVKGRFTISRDNAKNTVYLQMNSLKPEDTAVYYCNADWNWYPFLYSRMDYWGQGTQVTVSS”, for which the “polyreactivity (PSR sort gate)” value was “low polyreactivity”.
For “QVQLVESGGGLVQAGGSLRLSCAASGSTFTPYAMGWSRKAPGKERELVAVIRWRGGRTYYADSVQGRFTISRDNAKNTVYLQMNSLKPEDTAVYYCAAGGSQGAGGYGYYGYDYWGQGTQETVSS”, the “polyreactivity (PSR sort gate)” value is “low polyreactivity”.
As to “QVQLVESGGGLVQAGGSLRLSCAASGSTFTPYAMGWYRPAPGKEREFVAAITSIGGSTYYADSVKGRFTISRDHAKFTVYLQMNSLKPEDTAVYYCAADYYEWSLWNDYWGQGTQVTVSS”, the “polyreactivity (PSR sort gate)” value is listed as “high polyreactivity”.
For “QVQLVESGGGLVQAGGSLRLSCAASGSTFTPYAMGWYRPAPGKERELVATISSRGGSTSYADSVKGRFTISRDNAKNTVYLQMNSLKPEDTAVYYCARKVRRVARIMYYWGQGTQVTVSS”, the “polyreactivity (PSR sort gate)” value is recorded as “high polyreactivity”.
Then “QVQLVESGGGLVQAGGSLRLSCAASGSTFTPYAMGWYRQAPGKERELVAAINGGGTRTYYADSVKGRFTISRDNAKNTVYLQMNSLKPEDTAVYYCAARTSTSRSYPYNYWGQGTQVTVSS”, with “high polyreactivity”; and “QVQLVESGGGLVQAGGSLRLSCAASGSTFTPYGMGWYRKAPGKERELVAAITVSGGRTYDADSVKGRFTISRDNAKNTVYLQMNSLKPEDTAVYYCAAVYLRGDGEYDYWGQGTQVTVSS”, with “low polyreactivity”; and “QVQLVESGGGLVQAGGSLRLSCAASGSTFTRNAKGWYRQAPGKERELVAAITSSGSRTYYADSVKGRFTISRDNAKNTVYLQMNRLKPEDTAVYYCAGLGDTRYVAMDHWGQGTQVTVSS”, with “high polyreactivity”.
“QVQLVESGGGLVQAGGSLRLSCAASGSTFTRNAMGWYRQAPGKERELVAAISSRGTSTYYADSVKGRFTISRDNAKNTVYLQMNSLKPEDTAVYYCAAVGVKQYLGGNPFDYWGQGTQVTVSS”: the “polyreactivity (PSR sort gate)” value is on record as “high polyreactivity”.
Regarding “QVQLVESGGGLVQAGGSLRLSCAASGSTFTRYAMGWYRQAPGKERELVAAISLSGGDTYYADSVKGRFTISRDNAKNTVYLQMNSLKPEDTAVYYCAARWGYRGYSYEYWGQGTQVTVSS”, the “polyreactivity (PSR sort gate)” value is reported as “high polyreactivity”.
Then “QVQLVESGGGLVQAGGSLRLSCAASGSTFTRYAMGWYRQAPGKERELVAAISSSAGRTYYADSVKGRFTISRDYAKNTVYLQMKSLKPEDTAVYYCAATRVYAGAQYDYWGQGTKVTVSS”, with “high polyreactivity”.
For the sequence “QVQLVESGGGLVQAGGSLRLSCAASGSTFTSYAIGWYRQAPGKERELVAAIRYSGGRTYYADSVKGRFTISRDNAKNTVYFQMNSLKPEDTAVYYCAARSKVYKVGYNYWGQGTQVTVSS”, the “polyreactivity (PSR sort gate)” value was “high polyreactivity”.
To “QVQLVESGGGLVQAGGSLRLSCAASGSTFTSYAMGWYRQAPGKERELVAAIRYRGDGTYYADSVKGRCTISRDNAKNTVNLQMNSLKPEDNAVYYCAADTTLQAFIRYRPIGSYDSWGQGTKVTVSS” belongs “low polyreactivity”; to “QVQLVESGGGLVQAGGSLRLSCAASGSTFTSYAMGWYRQAPGKERELVAAIRYRGDGTYYADSVKGRFTISRDNAKNTVYLQMNSLKPEDTAVYYCAADSRVYRGGYIYRYGYWGQGTQVTVSS”, “low polyreactivity”; to “QVQLVESGGGLVQAGGSLRLSCAASGSTFTSYAMGWYRQAPGKERELVAAISWRGGSTYYADSVKGRFTISRDNAKNTVYLQMNSLKPEDTAVYYCNAVVRQPHDLDYWGQGTQVTVSS”, “high polyreactivity”.
Consider “QVQLVESGGGLVQAGGSLRLSCAASGSTFTSYAMGWYRQAPGKERELVASITRSGGRTYYADSVKGRFTISRDNAKNTVYLQMNSLKPEDTAVYYCARRYPGGYYWGQGTQVTVSS”, for which the “polyreactivity (PSR sort gate)” value is “high polyreactivity”.
With “QVQLVESGGGLVQAGGSLRLSCAASGSTFTVNAMGWYRQAPGKERELVAVIRKSGTSTYYADSVKGRFTISRDNAKNTVYFQMNSLKPEDTAVYYCAGGGPSTLDDYWGQGTQVTVSS”, the “polyreactivity (PSR sort gate)” value was “low polyreactivity”.
Turning to “QVQLVESGGGLVQAGGSLRLSCAASGSTFTVYAMGWYRQAPGKEREFVAAITRRGGNTYYADSVKGRFTISRDNAKNTVYLQMNSLKPEDTAVYYCNADSPLNAYYGGRELDYWGQGTQVTVSS”, the “polyreactivity (PSR sort gate)” value is “high polyreactivity”.
To “QVQLVESGGGLVQAGGSLRLSCAASGSTFTVYAMGWYRQAPGKERELVAVITGSGGSTYYADSVKGRFTISRDNAKNTVYLQMNSLKPEDTAVYYCAKEPGENWTVSWRDFDYWGQGTQVTVSS” belongs “low polyreactivity”; to “QVQLVESGGGLVQAGGSLRLSCAASGSTFTVYAMRWYRQAPGKERELVADITGGGRTYYADSVKGRFTISRDNAKNTVYLQMNSLKPEDTAVYYCAKKYSWRYARVYSLHFDYWGQGTQVTVSS”, “high polyreactivity”; to “QVQLVESGGGLVQAGGSLRLSCAASGSTFTWNAMGWYRQAPGKERELVAAISGDGGSTYYADSVKGRFTISRDNAKNTVYLQMNSLKPEDTAVYYCAASSAHIFSYRYNFWGQGTQVTVSS”, “low polyreactivity”.
Take “QVQLVESGGGLVQAGGSLRLSCAASGSTFTWYAMGWYRQAPGKERELVADISYGGGSTYYADSVKGRFTISRDNAKNTVYLPMNSLKPEDTAVYYCAAESIPYYRYDYWGQGTQVTVSS”: the “polyreactivity (PSR sort gate)” value is recorded as “low polyreactivity”.
In the case of “QVQLVESGGGLVQAGGSLRLSCAASGSTFTWYGKGWYRQAPGKERELVAAISGSGGRTYYADSVKGRFTISRDNAKNTVYLQMNSLKPEDTAVYYCNADPANPFGTEFEYWGQGTQVTVSS”, the “polyreactivity (PSR sort gate)” value is on record as “high polyreactivity”.
For the sequence “QVQLVESGGGLVQAGGSLRLSCAASGSTFTYYAMGWYRQAPGKEREWVAAISGGGDTYYADSVKGRFTISRDNAKNTVYLQMTSLKPEDTAVYYCNARVWAKSPRGSQYNMYDYWGQGTQVTVSS”, the “polyreactivity (PSR sort gate)” value was “high polyreactivity”.
For the sequence “QVQLVESGGGLVQAGGSLRLSCAASGSTFTYYAMGWYRQAPGNEREFVASLTYRGGRTNYADSVKGRFTISRDNATNTVYLQMNRQKPEDTAVYYCAARQRWTYAYDYWGQGTQVTVSS”, the “polyreactivity (PSR sort gate)” value is on record as “high polyreactivity”.
Consider “QVQLVESGGGLVQAGGSLRLSCAASGSTFTYYAMGWYRQATGKETELVAAINIGGGGTYYADSVKGRFTISRDNAKNTVYLQMKSLKPEYTAVYYCATDIYFENGFGYWGQGTQVTVSS”, for which the “polyreactivity (PSR sort gate)” value is on record as “low polyreactivity”.
Then “QVQLVESGGGLVQAGGSLRLSCAASGSTFTYYTMGWYRQAPGKERELVAAISRTTGSTYYADSVKGRFTISRDNAKNTVYLQLNSLKPEDTAVDYCAAQSYKILLYFIGTAGDGYWGQGTQVTVSS”, with “low polyreactivity”.
Take “QVQLVESGGGLVQAGGSLRLSCAASGSTFVANTMGWYRQAPATERELVASITSGDSTNYADSVKGRFTISRDNAKNTVYFQMKSLKPEDTAVYYCAAETVWYYVGGQLIYYYWGQGTQVTVSS”: the “polyreactivity (PSR sort gate)” value is “low polyreactivity”.
For “QVQLVESGGGLVQAGGSLRLSCAASGSTFVAYAMGWYRQAPGKERELVAAISSVGRTNYADSVKGRFTISRDNAKYTVYLQMNSLKPEDTAVYYCAAVYVDRRKRSYYWGQGTQVTVSS”, the “polyreactivity (PSR sort gate)” value was “high polyreactivity”.
Consider “QVQLVESGGGLVQAGGSLRLSCAASGSTFVDKAMGWYRQAPGKERELVATISSGGSTYYADSVKGRFTISRDNAKNTVYLQMNSLKPEDTAVYYCNADGNKRYPWVDYWGQGTQVTVSS”, for which the “polyreactivity (PSR sort gate)” value is reported as “low polyreactivity”.
Regarding “QVQLVESGGGLVQAGGSLRLSCAASGSTFVDNALGGYRQAPGKERELVAGISIGGITYYADSVKGRFTISRDNAKNTVYLQMNSLKPEDTAVYYCAKRHKRTRNKYYYWGQGTQVTVSS”, the “polyreactivity (PSR sort gate)” value is listed as “high polyreactivity”.
For “QVQLVESGGGLVQAGGSLRLSCAASGSTFVDYAMGWYRQAPGKERELVAAINERGGSTYYADSVKGRFTISRDNAKNTVYLQMNSLKPEDTAVYYCAARRRTRSSHSWYIRYGYWGQGTQVTVSS”, the “polyreactivity (PSR sort gate)” value is recorded as “low polyreactivity”.

The values above are taken from the nanobody polyreactivity screen of Harvey et al. (2022).
